Source: the DeepSol protein solubility set

Assay: soluble on expression in E. coli; label from the status in PepcDB or PDB records

Sequence	soluble on expression in E. coli
MAHHHHHHMWFGQLVIGPPGSGKSTYVAGVEHILRQINRKLVLINLDPFVENDVYKADVNISDLVDIKKVFCDLGLGPNGTLIYCMEYLLINFDWLEEKLKEHKDHYLLIDTPGQVELYTHNDALRKIVEKMTKMNCRLTSVHIVDSTLCSDNYKYVSALLLSLCSQIHLELPHVNVFSKIDLLKYFRDDLNFPLSYYVEAQNLEQLMLYARYQNESSSGSEGVNMGDDSPSGSLNDRSSCAQSAIKQAIRNDINSGRIKNVRKNYKKFSNKFLKLNEYICETVEDYNMINFALLDIQDKYSVLKLLKIIDGANGFRFSSIYSEYSLFDTYAEAIEYDCDDIQEKIVDVSDEEKEASLSGHPPHG	not soluble
MAHHHHHHMYAGFPRLNVTEAQETVDLDFELTNEKGCVKVTEFPVPKVVNLSFPAVCALLYNARTATSSRNIFGSVIGLQLQDTVEVTDVKTNPSIDIEEDDRMTEEERMERVRKERKLLDADKAIFENMYNQENLDTNVIGQFVVSSARFNPFSTRTMRKLQELHRESLPAILLTYDPFRTGLLGRPHIRAYTPTAAYYKYDSLVSTERGYQRRRSLAQYAKESGITKEGVLHEIPVKLEVDAFHKLNLMNVPPTAVGDSFKAIQSMAVSNYIEALLSSIRNNTDQLKQKLDYEGNVKDNGNVPVGQDAETMLLMKHVRDQTDHLDALCDSALLYSSLLRDL	soluble
MAHHHHHHMYEKTHVTTYPVMGCQISVGTTASRRSKGLNATRSGVDGALTSGTVDGRDPKSTGADNSVSLAYAVPAVKPVTYNDYRGFQVTMVNGTLAKINNICRWLDTALDKREKNGGWCMDVLAESVSSGKMETSFYCESIVQASHHVTHYCGQERANGVEYFAEVHSQQVFEKSAVSRTFDCPSAKFVYNSRFEEIPRQSDITTTQLNKETSDSGIPNGREAMIRYSPTSSEDGGRLNE	not soluble
MAHHHHHHMYRNLFDKLKDGPLKISILGSGNWASAISKVVGTNAKNNYLFENEVRMWIRDEFVNGERMVDIINNKHENTKYLKGVPLPHNIVAHSDLASVINDADLLIFIVPCQYLESVLASIKESESIKIASHAKAISLTKGFIVKKNQMKLCSNYISDFLNIPCSALSGANIAMDVAMENFSEATIGGNDKDSLVIWQRVFDLPYFKINCVNETIEVEICGALKNIITLACGFCDGLNLPTNSKSAIIRNGINEMILFGKVFFQKFNENILLESCGFADIITSFLAGRNAKCSAEFIKSTPKKTWEELENEILKGQKLQGTVTLKYVYHMIKEKNMTNEFPLFTVLHKISFENEDPSSLLKTFMNNKINQLNL	soluble
MAHHHHHHSLSELVIESWRADDKALWEQKIIPAFEAANPGIKVKFNPVPNVNYTPTLWENLKAGKAGDLITCRPFDDSLALFKAGHLAEITEMAGMENFPSFAQAPWQTDSGAQTFCVPMASVIHGFFYNKKIFNELGLSVPQTREQFFTVLDKVKADGRYIPLSMSGSESWVASELGYQNIGPNYWKGEDGRLALINGQEHLDDSQYVKVFEELARWRAYLGEDGELRDYGTSNELFTSGKAALYVAGSWEIAPFTDKVDFGVMRPPVAKQGDGCFFTDHTDIGMGMNPASKNPQAAMAFLQWLTTPEFAELYTNSLPGFFSLSNHFFDVTNPAAREMMEWRDQCDSTIRVATQILSRGQPKLGDELAEVSQAVLVGKMTPTAAAERLEQGLKRWYAPHQTRKAKEQECQCVEPISPTTRLNTLPVVDIAPVVASDPVPPTEATILSEEG	not soluble
MAHHHHHHVDDDDKMVTDQRWLIDKSALVRLTDSPDMEIWSNRIERGLVHITGVTRLEVGFSAECGEIARREFREPPLSAMPVEYLTPRIEDRALEVQTLLADRGHHRGPSIPDLLIAATAELSGLTVLHVDKDFDAIAALTGQKTERLTHRPPSA	soluble
MAHQTGIHATEELKEFFAKARAGSVRLIKVVIEDEQLVLGASQEPVGRWDQDYDRAVLPLLDAQQPCYLLYRLDSQNAQGFEWLFLAWSPDNSPVRLKMLYAATRATVKKEFGGGHIKDELFGTVKDDLSFAGYQKHLSSCAAPAPLTSAERELQQIRINEVKTEISVESKHQTLQGLAFPLQPEAQRALQQLKQKMVNYIQMKLDLERETIELVHTEPTDVAQLPSRVPRDAARYHFFLYKHTHEGDPLESVVFIYSMPGYKCSIKERMLYSSCKSRLLDSVEQDFHLEIAKKIEIGDGAELTAEFLYDEVHPKQHAFKQAFAKPKGPGGKRGHKRLIRGPGENGDDS	soluble
MAHRNTYEAVLHKIQVGSPEDGNGAIRILQLSDLHLEKLSISPDDLYEKLRGEPIDFIALTGDFLDREASIPKLGPYLTALKKLQPAYGMYAVFGNHDYVLQGEPFERLKATLEEHGCIVLQNEMKTITVHGQTVNIIGIDDFYTRRSNMKKAYAGVKDGINIVLTHDPDIVPHMGAYHFDYLLSGHFHGGQIHWPKPYHLAKMSKTLTKRNMIKGYHEWEGKPFYINEGLGQTGVNIRVGSKPEVTLHLLSLPSVAQSETVKAVLEHHHHHH	soluble
MAHRRKFGGGRGEAVAKAVGIKGSALPTVIDATAGLGRDAFVLAAIGCQVRLVERHPVVFLLLQDGLNRAYQDEEIGEMLQQNLHLLNVQHINELDPNSDYADVVYLDPMYPHKQKSALVKKEMRVFQHLVGADLDADELLLPALQLAKKRVVVKRPDYAEFLCGKQPHFSHETKNHRFDIYMGASQCLEHHHHHH	not soluble
MAHSTIPTLLCFCDEPLKRTNEGAEHVNQARRYAKWHVYRERGYETVPPTENPDSLLAACIAVARLSETAFEDAFGDIEAQIRSHYDDSTVELPFADADGSDILVYKKDIAVRPDPMTFDPPVLEQFLGQFSGDSDSPVVPAKADLDREVFDDLDFELKSVSGMHYLHNDGYDNERTVQSSQRLGTDPDATVEMIPVDPAEFGNFQHYVTSNLIYQARDVLLRMGVKPPIAFRAQGQGKYRATLEQQACPQYENYWDATADIQSWEPK	not soluble
MAIAKTDVLKFTTEVQPIGKQQYMELSKDIFVFSYLCGGINFTDIANLTNENIQNGRLHYIRQKTKKPIKIGIPQEAMQIIEKYSKESKGYLFPILDSKIHKTALQKQNRIHKILGKVNKNLKLLAAQLGVEANLTTYVARHSFASVLKKSGVNIALISEALGHSDLATTQIYLDSFDNEQVDEAMRNLLEHHHHHH	not soluble
MAIESEVLVIGGGLGGLTSALAAAREGADVRLVSYKQSTLRQASGLVDVLGYTPDGDGPLTDPYEAIPSLPEAHPYRKVGVQTVRDALSLFDDAVPTYEGEHTDTNALLPTHGGSIKPTARYPAGASAGLASDTRDTLLVGIEEMVDFDAPHVAAHLDATGVPFDVRGETIRFPGDLRADAKVTRYAKLLDTNSEVAVRGRMVPAREALAQRVNPLLEDEERVGFPAILGDDNPGAIRDALGDHLGVDVFEVPMGPPSLPGLRLEDALFSALDEAGASIETGNPVVDFDGEDRIEKVFIEKNGAKIPNSADQYVLATGGFVGKGVESDREGVYEPVFDCHIPHAADRYDWFEGELFGDHEFARYGVATDDDLRPLDASEHSEFENLRAAGSVLGGYDFAAEKSGSGVSIATGYAAGQRAAQEARLEHHHHHH	soluble
MAIETILVINKSGGLIYQRNFTNDEQKLNSNEYLILASTLHGVFAIASQLTPKALQLTQQTNIENTIPYIPYVGMSSNRSDTRNGGGNNNKHTNNEKLGSFKGDDFFKEPFTNWNKSGLRQLCTDQFTMFIYQTLTGLKFVAISSSVMPQRQPTIATTDKPDRPKSTSNLAIQIADNFLRKVYCLYSDYVMKDPSYSMEMPIRSNLFDEKVKKMVENLQ	soluble
MAIKGPRKHLKRLAAPANWQLPRKVKTFTVRPSPGPHSMDKSLPLLLVVRDVLKYADNAREAKKIIQTGKILIDGLKRKEYKHPAGLMDVLSIPEMDETYLVLFDESGRISLKKTDKTDVKLCKIVNKTVVKGGNIQLNLHDGRNQIVKVSDAAKAEEDVYKTGDSVLISIPEQSIAGHVAFGEGKLAYITGGKHVGEFAKIVEVENRALYSDIVTLENKDGEKFKTVKPYVFIVGQDEPVISMLEHHHHHH	soluble
MAILIPASFGRLTITSRAQVRVRVSASANQRTIRRDSVDWVKETSSFFEEDKRPIMLFDGVCNLCNGGVKFVRDHDRNRSIRFEALQSEAGKKLLLRSGRAPDDISSVVLVENDRSYIKSEAVLKIMKYIDLPFPQLAFFLQFAPLFVRDFLYENVANNRYAMFGRSDSCEL	soluble
MAIRSSVLALCVATLLTGCQNLNTNTLMQSGAQAFQAATLSDAQVKALSDQSCEQMDKEAKIAPADSKYTQRLNKIADALGHDINGTPANYKVYLEKDVNAWAMANGCIRVYSGLMDMMNDNEVEGVLGHEMGHVALGHTRKAMQVAYAATAARTAIASAGGVAASLSQSQLADLGEKLVNSQFSQSQESQADDYSFDLLKKRGINREGLASSFEKLAKLDASHESSMFDSHPSSEGRAKHIRERITAEKLEHHHHHH	soluble
MAISKRHIGPYIIRETLGEGSFGKVKLATHYKTQQKVALKFISRQLLKKSDMHMRVEREISYLKLLRHPHIIKLYDVITTPTDIVMVIEYAGGELFDYIVEKKRMTEDEGRRFFQQIICAIEYCHRHKIVHRDLKPENLLLDDNLNVKIADFGLSNIMTDGNFLKTSCGSPNYAAPEVINGKLYAGPEVDVWSCGIVLYVMLVGRLPFDDEFIPNLFKKVNSCVYVMPDFLSPGAQSLIRRMIVADPMQRITIQEIRRDPWFNVNLPDYLRPMEEVQGSYADSRIVSKLGEAMGFSEDYIVEALRSDENNEVKEAYNLLHENQVIQEKLEHHHHHH	soluble
MAISVVDLFSIGIGPSSSHTVGPMRAALTYISEFPSSHVDITLHGSLAATGKGHCTDRAVLLGLVGWEPTIVPIDAAPSPGAPIPAKGSVNGPKGTVSYSLTFDPHPLPEHPNAVTFKGSTTRTYLSVGGGFIMTLEDFRK	not soluble
MAKASSSFVCQNCGAAFNRWQGKCEACGEWNTLVEEAGDNAVPVSIRAKRRGRTFKLESLAGKSNDAPRLPSGMAELDRVTGGGFVRGSVLLVGGDPGIGKSTLLTQATSLMAKAGHRTVYISGEEAIAQVRLRAERLGLASAPVELAAETSVEDIVATLSEGATPKLIVIDSIQTMWTDTVESAPGTVTQVRASAQALIRFAKKTGAAIILVGHVTKDGQIAGPRVVEHMVDAVLSFEGEGSQQFRILRSVKNRFGPTDEIGVFEMTGLGLREVSNPSELFLSERDLGSPGTAVFAGIEGTRPVLVELQALVAPSTLGTPRRAVVGWDSARLSMVLAVLEAHCGVKLSGYDVYFNVAGGLRINEPAADLAAAAALVSSLANAPLPTDAVYFGEISLSGAVRPVAQTPARLKEAAKLGFARAVLPEQTRGEAPADAGLALQSVGGLSSLVADIAARGTRRGDDDGAPRTKAASNATPARFRRQEALEHHHHHH	soluble
MAKETVCVTGANGFIGSWIIRTLIEKGYTKIHASIYPGSDPTHLLQLPGSDSKIKIFEADLLDSDAISRAIDGCAGVFHVASPCTLDPPVDPEKELVEPAVKGTINVLEAAKRFNVRRVVITSSISALVPNPNWPEKVPVDESSWSDLDFCKSRQKWYPISKTLAEKAAWEFSEKHGTNIVTIHPSTCLGPLLQPNLNASCAVLLQLLQGSTETQEHHWLGVVHVKDVAKGHVMLFETPDASGRFLCTNGIYQFSEFAALVSKLFPEFAVHKFDKETQPGLTSCNDAAKRLIELGLVFTAVEDAVKETVQSLRDKGFL	soluble
MAKEWGYASHNGPDHWHELFPNAKGENQSPIELHTKDIRHDPSLQPWSVSYDGGSAKTILNNGKTCRVVFDDTYDRSMLRGGPLPGPYRLRQFHLHWGSSDDHGSEHTVDGVKYAAELHLVHWNPKYNTFKEALKQRDGIAVIGIFLKIGHENGEFQIFLDALDKIKTKGKEAPFTKFDPSSLFPASRDYWTYQGSFTTPPCEECIVWLLLKEPMTVSSDQMAKLRSLLSSAENEPPVPLVSNWRPPQPINNRVVRASFKHHHHHH	soluble
